Experimental data taken from PMC10732398 (PLOS Pathogens, 2023).

Assays:
⍺4β7 on RPMI8866 cells [1] = assay: Flow cytometry: D1D2-Ig⍺tp staining of RPMI8866 cells with ⍺4 and β7 antagonists; assay type: binding, human; details: antagonist at 10 μg/ml, 1 mM MnCl2
From the text: (§1) Several mAbs and small molecule antagonists of ⍺4β7 and ⍺4β1 have been developed to treat diseases, including IBD and MS. […] Vedolizumab and etrolizumab are β7 mAbs, based on murine mAbs Act-1 and FIB504, respectively. Both are used to treat IBDs, [50, 51]. Natulizumab is an ⍺4 specific humanized version of the mouse mAb HP2/1 used to treat Multiple Sclerosis (MS). […] To determine whether these antagonists block CD4 binding to α4β7, we stained RPMI8866 cells with D1D2-Ig⍺tp in the absence or presence of increasing concentrations of each (Fig 3).
(§2) Y-axis indicates gMFI. Dashed and solid lines represent gMFI of D1D2-Ig⍺tp and MAdCAM-Ig respectively, in the absence of any antagonist.
(§3) Cells were stained with fluoresceine conjugated mAbs or recombinant proteins using standard procedures preceded by Fc receptor blocking with human IgG. Buffers used were 10 mM HEPES 150 mM NaCl (HBS Buffer) with 100 μM CaCl2. 1 mM MnCl2 was also included, unless otherwise specified.

⍺4β7 on RPMI8866 cells [2] = assay: Flow cytometry: MAdCAM-Ig staining of RPMI8866 cells with ⍺4 and β7 antagonists; assay type: binding, human; details: antagonist at 1 μg/ml
From the text: as §1, §2, §3

[3] = test system: ⍺4β7 on primary CD8^+ T cells; assay: Flow cytometry: FAM-conjugated pCD4^165-178 binding to RA-treated primary CD8^+ T cells; parameters: species or system human; details: FAM-Ttds-labelled peptide 1.25 μg/200,000 cells in 100 μl; MnCl2; 3 independent experiments
From the text: To further investigate the interaction between pCD4^165-178 and ⍺4β7 we attached a fluorescein dye to its amino terminus via a trioxatridecan-succinamic acid (Ttds) linker (Fig 5A). A scrambled pCD4^165-178 was employed as a control. […] FIB504 and vedolizumab inhibited binding by ~50%. This inhibition pattern resembles the one we obtained when inhibiting D1D2-Ig⍺tp with the same antagonists (Fig 3). We conclude that the CD4 D2 G β-strand binds directly to the headpiece region of ⍺4β7 in a cation dependent manner. Support for this conclusion, in the form of site directed mutagenesis within the D2 G β-strand is provided below.
Fig 5 Direct binding of pCD4^165-178 to ⍺4β7 on primary T cells. (A) Sequence of FAM -conjugated pCD4^165-178 and a scrambled derivative (FAM-scr pCD4^165-178). (B) Flow-cytometry derived histogram of pCD4^165-178 binding to RA -cultured CD8^+ T cells. pCD4^165-178 in the presence (green), or absence of Mn^++(black). Unstained cells are shown (grey). (C) Binding of pCD4^165-178 and its scrambled derivative to CD8^+ T cells in the presence of MnCl2 as in panel B, and in the presence of ⍺4 and ⍺4β7 antagonists, as indicated. Y-axis indicates % cells bound. Error bars represent standard error from 3 independent experiments.
Cells were stained with fluoresceine conjugated mAbs or recombinant proteins using standard procedures preceded by Fc receptor blocking with human IgG. Buffers used were 10 mM HEPES 150 mM NaCl (HBS Buffer) with 100 μM CaCl2. 1 mM MnCl2 was also included, unless otherwise specified. Buffer without divalent cations included 0.1 mM EDTA. Unlabeled mAb or protein inhibitors were preincubated with cells or proteins at a 5X molar excess for 15 min on ice. FAM labeled peptides were used at 1.25 μg/ 200,000 cells in a 100 μl volume. Data were acquired using a FACSCanto II (BD Biosciences) and analyzed with FlowJo software (BD Biosciences). Plotted MFI values represent absolute values.

CD4 D1D2 = assay: SPR cross-inhibition: ⍺4β7 binding to immobilized CD4 D1D2 after preincubation of the surface with CD4 mAbs; details: surface preincubated with mAb, Fig 8C
From the text: Fig 8 Mutating a gp120 contact site in CD4 D1 abrogates CD4-⍺4β7 interactions. (A) Positions of amino acid substitutions introduced into D1D2-Ig⍺tp are indicated on a space-filling model of CD4 D1D2. Substitutions at S42/F43 in D1 (green) and K171 in D2 (purple) are shown. Approximate locations of mAb Leu3A and ibalizumab epitopes are indicated. (B) Flow-cytometric analysis of increasing amounts of D1D2-Ig⍺tp and mutant derivatives binding to ⍺4β7 on CD8^+ T cells. Y-axis indicates % cells bound. (C) SPR analysis of soluble ⍺4β7 binding to a D1D2 coated surface following preincubation of the surface with ibalizumab (red), mAb Leu3A (light green), or ⍺4β7 (dark green). Y-axis indicates the mass of soluble ⍺4β7 bound at the end of the association phase. Mass of prebound inhibitors is subtracted. (D) Flow-cytometric analysis of unlabeled gp120 inhibiting PE labeled D1D2-Ig⍺tp binding to ⍺4β7 on CD8^+ T cells. The integrin ⍺4 antagonist FG was employed as a control. Y-axis indicates MFI.
Experiments were performed using a Biacore 3000 instrument (Cytiva Life Sciences) using CM4 or CM5 sensor chips. The data were evaluated using BIAevaluation 4.1.1 software (Cytiva Life Sciences). […] The ability of each analyte to inhibit either itself or ⍺4β7 was determined by comparing the binding of ⍺4β7 in the absence or presence of the listed pre-bound analytes as previously described. […]

⍺4β7 = assay: SPR binding kinetics: recombinant ⍺4β7 passed over ligand-coated surfaces (S1 Table); details: SPR Biacore 3000, ligand immobilized, ⍺4β7 analyte, HBS pH 7.4, 1 mM MnCl2, 25°C
Description: To measure the specific affinity of CD4–⍺4β7 interactions we developed a surface plasmon resonance (SPR) -based assay in which recombinant ⍺4β7 was passed over a surface coated with a 23 kD D1D2 protein (aa 1–183). For comparison we prepared surfaces with recombinant MAdCAM-Ig, VCAM-Ig, monomeric gp120, and a SOSIP env trimer (S1 Table). Assays were carried out in the presence of MnCl2 to present ⍺4β7 in an active conformation. […] This rate of dissociation was similar to that of both MAdCAM-Ig and VCAM-Ig with ⍺4β7 and is indicative of a relatively high-affinity interaction.
Experiments were performed using a Biacore 3000 instrument (Cytiva Life Sciences) using CM4 or CM5 sensor chips. The data were evaluated using BIAevaluation 4.1.1 software (Cytiva Life Sciences). The chip surface was activated by injecting 35 μl of a 1:1 mixture of 0.05 M N-hydroxysuccinimide and 0.2 M N-ethyl-N-(dimethylaminopropyl) carbodiimide at 5 μl/min. NeutrAvidin, HIV gp120, sCD4 (D1D2) or Hu-MAdCAM-Ig (R&D Systems) at concentrations of 5 μg/ml in 10mM NaOAc, pH 4.5, were immobilized to 250–750 resonance units (RU). After the proteins were immobilized to the desired densities, unreacted sites were blocked with 35 μl of 1 M Tris-HCl (pH 8.0). Biotinylated cyclic V2 peptides (1 μg/ml in 20 mM Tris-HCl, pH 8.0) were bound to the NeutrAvidin surfaces to densities of approximately 250–300 RU. One surface was activated and blocked without ligand as a control surface for non-specific binding. Signal from the control surface was subsequently subtracted. Running buffer was HBS (pH 7.4), 1 mM MnCl2, 0.005% Tween- 20, 0.05% soluble carboxymethyl-dextran. Binding experiments were carried out at a flow rate of 25 μl/min at 25°C. After a 2 min injection, the surface was washed for an additional 2 min in running buffer allowing dissociation of the bound ligand from the surface. The surfaces were regenerated by multiple injections of 4.5 M MgCl2 at a flow rate of 100 μl/min. Inhibition of ⍺4β7 binding by linear V2-loop and CD4 derived peptides was carried out by pre-incubating ⍺4β7 with the peptides in running buffer at the indicated concentrations for 2 hours at room temperature prior to passing them over the prepared surfaces as described above. Cross-inhibition experiments were performed by passing either buffer or the listed analytes over a surface to which sCD4 (D1D2) had been immobilized, followed by a secondary sequential injection of ⍺4β7. The ability of each analyte to inhibit either itself or ⍺4β7 was determined by comparing the binding of ⍺4β7 in the absence or presence of the listed pre-bound analytes as previously described. Illustration of the dynamic range of range of linear peptide inhibition assays is provided in S4 Fig.

⍺4β7 on RPMI8866 cells [4] = assay: Flow cytometry: ligand staining of ⍺4β7-expressing cells in buffers with different divalent cations; assay type: binding, human; details: absence of divalent cations (0.1 mM EDTA)
From the text: Fig 1 Binding of soluble CD4 to ⍺4β7 on CD4^+ T cells. (A) Schematic of D1D2-Ig⍺tp. (B) Flow-cytometry histogram of PE-conjugated D1D2-Ig⍺tp staining of CD4^+ T cells alone (blue) or in the presence of either the anti ⍺4 mAb 2B4 (green) or an irrelevant mAb (black-dashed). Cells stained with PE-conjugated MicA-Ig⍺tp (red), along with unstained cells (grey) are included. X-axis indicates geometric mean fluorescence intensity (gMFI). (C) 293T cells untransfected or co-transfected with ⍺4 and β7 expression vectors stained with either PE-D1D2-Ig⍺tp or PE-MAdCAM-Ig in the absence or presence of the ⍺4 antagonist FG. Y-axis indicates gMFI. (D) CD4^+ T cells stained with anti CD45RO (x-axis) anti β7 (y-axis) (left), or with anti CD45RO (x-axis) and D1D2-Ig⍺tp (y-axis) (right). % cells in each quadrant, as indicated. (E) CD4^+ T cells stained as in B, with lower MW forms of oligomerized D1D2-Ig⍺tp. Left Y-axis indicates gMFI (bars), right Y-axis indicates relative MW (kDa) (•). […]
(§4) Cells were stained with fluoresceine conjugated mAbs or recombinant proteins using standard procedures preceded by Fc receptor blocking with human IgG. […] Data were acquired using a FACSCanto II (BD Biosciences) and analyzed with FlowJo software (BD Biosciences). […]

⍺4β7 on RPMI8866 cells [5] = assay: Flow cytometry: cross-inhibition of MAdCAM-Ig, VCAM-Ig and D1D2-Ig⍺tp binding to RPMI8866 cells; parameters: species or system human; details: increasing concentrations of unlabeled inhibitor, Fig 2C, 2D
Description: Cis interactions between various integrins and leukocyte receptors are known to regulate immune cell functions. To determine whether CD4 inhibits MAdCAM-1 or VCAM-1 binding to ⍺4β7 we preincubated RPMI8866 cells with labelled MAdCAM-Ig or VCAM-Ig in the presence of increasing concentrations of unlabeled D1D2-Ig⍺tp. […] This implies that MAdCAM-1 and VCAM-1, acting in trans, may interfere with CD4-⍺4β7 interactions. What remains unknown is whether interactions between ⍺4β7 and CD4 impact CD4 migration into the TCR and subsequent interactions with MHC II (Fig 2E).
Fig 2 Cross-inhibition of MAdCAM-Ig, VCAM-Ig and D1D2-Ig⍺tp binding to ⍺4β7. Flow cytometric analysis of (A) PE -conjugated MAdCAM-Ig or (B) PE -conjugated VCAM-Ig binding to RPMI8866 cells pre-incubated with increasing concentrations of unlabeled D1D2-Igαtp. Cell preincubated with increasing concentrations of (C) unlabeled MAdCAM-Ig or (D) VCAM-Ig followed by PE -conjugated D1D2-Ig⍺tp. Y-axis indicates gMFI. Dashed line indicates gMFI in the absence of any inhibitor.
as §4, with “IgG. Buffers used were 10 mM HEPES 150 mM NaCl (HBS Buffer) with 100 μM CaCl2.” for “IgG.”

## Vedolizumab: β7 mAb based on murine mAb Act-1
⍺4β7 on RPMI8866 cells [1]
  reduction of D1D2-Ig⍺tp binding: ~ 50%
⍺4β7 on RPMI8866 cells [2]
  inhibition of MAdCAM-Ig binding (in words): blocked MAdCAM-Ig efficiently
[3]
  reduction of pCD4^165-178 binding to CD8^+ T cells: ~ 50%

## Ibalizumab: CD4 D2 mAb
CD4 D1D2
  inhibition of ⍺4β7 binding to surface immobilized CD4 D1D2 (in words): failed to inhibit

B1: VCAM-Ig: recombinant VCAM-1 Ig fusion, R&D Systems (protein)
chain: FKIETTPESRYLAQIGDSVSLTCSTTGCESPFFSWRTQIDSPLNGKVTNEGTTSTLTMNPVSFGNEHSYLCTATCESRKLEKGIQVEIYSFPKDPEIHLSGPLEAGKPITVKCSVADVYPFDRLEIDLLKGDHLMKSQEFLEDADRKSLETKSLEVTFTPVIEDIGKVLVCRAKLHIDEMDSVPTVRQAVKELQVYISPKNTVISVNPSTKLQEGGSVTMTCSSEGLPAPEIFWSKKLDNGNLQHLSGNATLTLIAMRMEDSGIYVCEGVNLIGKNRKEVELIVQEKPFTVEISPGPRIAAQIGDSVMLTCSVMGCESPSFSWRTQIDSPLSGKVRSEGTNSTLTLSPVSFENEHSYLCTVTCGHKKLEKGIQVELYSFPRDPEIEMSGGLVNGSSVTVSCKVPSVYPLDRLEIELLKGETILENIEFLEDTDMKSLENKSLEMTFIPTIEDTGKALVCQAKLHIDDMEFEPKQRQSTQTLYVNVAPRDTTVLVSPSSILEEGSSVNMTCLSQGFPAPKILWSRQLPNGELQPLSENATLTLISTKMEDSGVYLCEGINQAGRSRKEVELIIQVTPKDIKLTAFPSESVKEGDTVIISCTCGNVPETWIILKKKAETGDTVLKSIDGAYTIRKAQLKDAGVYECESKNKVGSQLRSLTLDVQGRENNKDYFSPE
modifications: left off: Ig (Fc, from the name VCAM-Ig), end not stated, kept
notes: recombinant VCAM-1 Ig fusion, R&D Systems
⍺4β7
  KA: 2.76e+07 M⁻¹
  ka: 38700 M⁻¹ s⁻¹
  kd: 0.00141 s⁻¹
⍺4β7 on RPMI8866 cells [4]
  binding to ⍺4β7 (in words): failed to bind
⍺4β7 on RPMI8866 cells [5]
  inhibition of PE-conjugated D1D2-Ig⍺tp binding to ⍺4β7 (in words): inhibited D1D2-Ig⍺tp binding to ⍺4β7 in a dose dependent manner
